Laboratory results as given in patent US7217694B2, “Inhibitors of IAPP fibril formation and uses thereof” (The Governing Counsel of the University of Toronto, priority 2000, dated 2007).
“Also recorded” adds a separate entry of the source. Values belong to the molecule of their own block, whether it stands above or below them.

Tests used:
hIAPP 1–37 [1] = target: T1, hIAPP 1–37 (Homo sapiens, UniProt P10997); test: Circular dichroism (CD) of IAPP conformational change, random coil to β-sheet; format: biochemical; settings: for effect on IAPP β-sheet formation / precipitation (CD): pH 6.5; for effect on IAPP conformation (CD): higher molar ratios / higher concentrations; for inhibition of IAPP β-sheet formation / fibril formation, overall statement (CD): molar ratio not stated; for effect on initial random structure of IAPP (CD) / conformational change of IAPP (CD): time 0; for effect on initial random structure of IAPP (CD): 1:10 or 1:20 molar ratio; for inhibitory activity from the circular dichroism results, peptides from the 8–20 region (summary): FIGS. 9A to 16B; for description of activity on IAPP conformation (CD), peptides from the 8–20 region: concentration not given; for effect on IAPP conformation (CD), peptides from the 8–20 region: 10-fold molar excess
T1 construct: Synthetic human IAPP (1–37) was purchased from BACHEM; purchased BACHEM (Torrence, Calif.); host or cells: chemical synthesis
T1 sequence (P10997 34-70): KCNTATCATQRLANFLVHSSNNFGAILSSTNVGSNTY
From the text: (§1) FIG. 1 illustrates the sequence of the amyloid-β (Aβ) peptide and its proposed structural domains. A peptide-based approach similar to that used for Aβ (Tjernberg, et al, J Biol Chem 272:12601–12605, 1997) has been used for targeting two key domains in IAPP initially ranging from the 8–20 and 20–29 sequences as shown in FIG. 2. These peptides, as has been shown for Aβ peptides, are able to bind to the full-length IAPP peptide and alter fibrillogenesis. The peptides disrupt fibrillogenesis by disrupting the folding into the amyloidogenic β-sheet conformation, disrupting protofilament interactions, and/or interfering with side chain interactions within the folded IAPP, which are necessary for aggregation and fibril formation. The peptides that have been examined (shown in FIG. 2) were small, synthetic hexapeptides that correspond to the principal sequence domains of IAPP. […] The in vitro assays included: Circular Dichroism (CD), to look at changes in folding of the amyloidogenic β-sheet; negative stain electron microscopy (EM) to examine changes in fibril morphology and relative density; and ThT fluorescence assay which provides a quantitative assessment of fibril formation.
Synthetic human IAPP (1–37) was purchased from BACHEM (Torrence, Calif.), synthetic peptides spanning the region from IAPP 8 to 20 and 19–31 (FIG. 3) were synthesized by the Peptide Synthesis Laboratory at the University of Toronto using standard FMOC (Fluoroenylmethoxycarbonyl) based solid phase peptide synthesis methodology. The peptides were purified by reverse phase HPLC using water/acetonitrile mixtures buffered with 0. 1% trifluoroacetic acid, on a POROS 20R2 column. The synthetic peptides were solubilized in […] (1 mg/ml), filtered (0.2 μm), aliquotted and lyophilized (Higham, C E., et al., FEBS Lett. 470: 55–60, 2000). Aliquots were reconstituted as required in 20 mM sodium acetate buffer pH 6.5.
CD was used to measure the peptide conformational changes associated with fibril formation. CD experiments were carried out at room temperature, and spectra (average of 5 scans) were collected using a Jasco J720 spectropolarimeter and quartz cuvettes with a path length of 1 mm. […]

hIAPP 1–37 [2] = target: T1, hIAPP 1–37; test: Negative stain electron microscopy of IAPP fibril morphology and density; format: biochemical; settings: for effect on IAPP fibril morphology / density / aggregation (EM): molar ratio not stated
From the text: as §1
TEM was used for structural analysis of in vitro assembled fibrils. Aliquots (4 μl) were applied to pioloform and carbon coated grids. The samples were incubated on the grids for 3 minutes at room temperature, excess material blotted off and stained with 1% phosphotungstic acid (PTA). Excess PTA was blotted off and the sample was left to air dry. All samples were examined using a Hitachi 7000 electron microscope with an accelerating voltage of 75 kV.
In preliminary work the series of peptides were synthesized from the 20–29 domain and examined, via CD, EM and ThT fluorescence, at two molar ratios (1:10 and 1:20) in comparison to the full-length IAPP residues 1–37. The following data (FIGS. 5A to 5D, 6A to 6C and 7A to 7B) were obtained.

[3] = target: T2, Synthetic human IAPP (1-37) (human, not fully specified); test: cell-based or functional assay
T2 peptide: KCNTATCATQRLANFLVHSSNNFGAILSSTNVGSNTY

Molecule: AILSST
hIAPP conformation by CD (hIAPP 1–37 [1]; 1:1 molar ratio with IAPP): no longer inhibitory | inhibition of IAPP β-sheet transition and aggregation (CD) (hIAPP 1–37 [1]; 1:10 or 1:20 molar ratio (10- or 20-fold molar excess)): very strong inhibitors of IAPP β-sheet transition | hIAPP conformation by CD (hIAPP 1–37 [1]; 5-fold molar excess): able to maintain hIAPP as a random coil peptide | inhibition of IAPP β-sheet conformational change at reduced concentrations (CD) (hIAPP 1–37 [1]; 5-fold molar excess (1:5) or 1:1 molar ratio): capable of maintaining the majority of hIAPP in a random coil conformation | effect on IAPP β-sheet formation / precipitation (CD) (hIAPP 1–37 [1]; 48-hour incubation): able to prevent the attenuation of signal due to precipitation of IAPP | effect on IAPP conformation (CD) (hIAPP 1–37 [1]): prevented the conformational change to β-sheet | inhibition of IAPP β-sheet formation / fibril formation, overall statement (CD) (hIAPP 1–37 [1]): greatest inhibition of IAPP fibril formation | effect on initial random structure of IAPP (CD) (hIAPP 1–37 [1]): had no effect on the initial random structure of IAPP | effect on IAPP fibril morphology / density / aggregation (EM) (hIAPP 1–37 [2]): fibrils formed were less numerous; also recorded: absence of fibrillar aggregates which could act as seeds

Molecule: FGAILS
effect on IAPP β-sheet formation / precipitation (CD) (hIAPP 1–37 [1]; 48-hour incubation): little effect on the ability of hIAPP (1–37) to form a β-sheet | effect on initial random structure of IAPP (CD) (hIAPP 1–37 [1]): had no effect on the initial random structure of IAPP | effect on IAPP fibril morphology / density / aggregation (EM) (hIAPP 1–37 [2]): had no effect on the morphology of IAPP fibrillar aggregates

Molecule: GAILSST
effect on IAPP conformation (CD) (hIAPP 1–37 [1]): prevented the conformational change to β-sheet

Molecule: ILSSTN
effect on IAPP β-sheet formation / precipitation (CD) (hIAPP 1–37 [1]; 48-hour incubation): little effect on the ability of hIAPP (1–37) to form a β-sheet | effect on initial random structure of IAPP (CD) (hIAPP 1–37 [1]): had no effect on the initial random structure of IAPP

Molecule: NFGAIL
inhibition of IAPP β-sheet formation / fibril formation, overall statement (CD) (hIAPP 1–37 [1]): not inhibitory; also recorded: may actually enhance IAPP fibril formation | conformational change of IAPP (CD) (hIAPP 1–37 [1]; 10 fold excess): a conformational change at time 0 | conformational change of IAPP (CD) (hIAPP 1–37 [1]; 20 fold excess): conformational change from random coil to β-sheet | effect on IAPP fibrils (EM) (hIAPP 1–37 [2]; 20 fold molar excess): appeared to enhance IAPP aggregation | effect on IAPP fibril morphology / density / aggregation (EM) (hIAPP 1–37 [2]): slightly enhanced fibril formation; also recorded: had no effect on the morphology of IAPP fibrillar aggregates; also recorded: immediate increase in the development of fibrils

Molecule: NNFGAI
effect on IAPP β-sheet formation / precipitation (CD) (hIAPP 1–37 [1]; 48-hour incubation): little effect on the ability of hIAPP (1–37) to form a β-sheet | effect on IAPP aggregation or precipitation (CD) (hIAPP 1–37 [1]; 48-hour incubation, 10 fold molar excess): no effect on aggregation or precipitation of hIAPP | IAPP conformation (CD) (hIAPP 1–37 [1]; 48-hour incubation, 20-fold molar excess): maintain IAPP in a random conformation | inhibition of IAPP β-sheet formation / fibril formation, overall statement (CD) (hIAPP 1–37 [1]): little, if any, inhibitory properties | effect on initial random structure of IAPP (CD) (hIAPP 1–37 [1]): had no effect on the initial random structure of IAPP | effect on IAPP fibril morphology / density / aggregation (EM) (hIAPP 1–37 [2]): had no effect on the morphology of IAPP fibrillar aggregates

Molecule: RLANFL [FRA-015]
effect on IAPP fibril morphology / density / aggregation (EM) (hIAPP 1–37 [2]): enhanced lateral aggregation (ribbon structures); also recorded: significantly accelerated aggregation

Molecule: SSNFGA
inhibition of normal IAPP fibrillar aggregation (EM) (hIAPP 1–37 [2]; reduced inhibitor concentrations): effective inhibitors of normal IAPP fibrillar aggregation

Molecule: SSNNFG
hIAPP conformation by CD (hIAPP 1–37 [1]; 1:1 molar ratio with IAPP): maintained hIAPP (1–37) in a random coil conformation | effect on IAPP β-sheet formation / precipitation (CD) (hIAPP 1–37 [1]; 48-hour incubation): capable of maintaining IAPP in a random conformation | inhibition of IAPP β-sheet formation / fibril formation, overall statement (CD) (hIAPP 1–37 [1]): strong inhibitors of β-sheet formation; also recorded: effective inhibitors even when used at low concentrations | effect on initial random structure of IAPP (CD) (hIAPP 1–37 [1]): had no effect on the initial random structure of IAPP | effect on IAPP fibril morphology / density / aggregation (EM) (hIAPP 1–37 [2]): typical high density of IAPP fibrils was not seen; also recorded: absence of fibrillar aggregates which could act as seeds

Molecule: NNFGAI
molar excess of peptide needed to keep IAPP in random conformation (CD, 48 hours) [3]: 20 fold molar excess

Molecule: GAILSS
sedimentation assay: soluble hIAPP remaining after 24 hours, 10 fold excess of peptide [3]: > 80% | sedimentation assay: soluble hIAPP remaining after 48 hours, 10 fold excess of peptide [3]: ~25% | sedimentation assay: soluble hIAPP remaining after 72 hours, 10 fold excess of peptide [3]: ~20%

Molecule: SNNFGA
sedimentation assay: soluble hIAPP remaining after 24 hours, 10 fold excess of peptide [3]: ~15% | sedimentation assay: soluble hIAPP remaining after 48 hours, 10 fold excess of peptide [3]: ~25% | sedimentation assay: soluble hIAPP remaining after 72 hours, 10 fold excess of peptide [3]: ~20%

Further lines, with some results ahead:

inhibitory activity from the circular dichroism results, peptides from the 8–20 region (summary) (hIAPP 1–37 [1]): have inhibitory activity | description of activity on IAPP conformation (CD), peptides from the 8–20 region (hIAPP 1–37 [1]): maintained a random coil | effect on IAPP fibril morphology / density / aggregation (EM) (hIAPP 1–37 [2]): lower density of IAPP fibrils
Molecule: ANFLVH [FRA-019]

inhibitory activity from the circular dichroism results, peptides from the 8–20 region (summary) (hIAPP 1–37 [1]): have inhibitory activity | effect on IAPP conformation (CD) (hIAPP 1–37 [1]): limited inhibition
Molecule: ATQRLA [FRA-012]
effect on IAPP fibril morphology / density / aggregation (EM) (hIAPP 1–37 [2]): only limited effects on the density and morphology of the fibrils

inhibitory activity from the circular dichroism results, peptides from the 8–20 region (summary) (hIAPP 1–37 [1]): have inhibitory activity | description of activity on IAPP conformation (CD), peptides from the 8–20 region (hIAPP 1–37 [1]): some modest inhibition
Molecule: FLVHSS [FRA-018]

effect on IAPP conformation (CD), peptides from the 8–20 region (hIAPP 1–37 [1]): relatively good inhibition | inhibitory activity from the circular dichroism results, peptides from the 8–20 region (summary) (hIAPP 1–37 [1]): have inhibitory activity | effect on IAPP conformation (CD) (hIAPP 1–37 [1]): better activity | effect on IAPP fibrils (EM) (hIAPP 1–37 [2]; 10-fold excess): disruption of normal fibrils | effect on IAPP fibrils (EM) (hIAPP 1–37 [2]; 20 fold molar excess): Some fibrils were also seen
Molecule: LANFLV [FRA-016]

inhibitory activity from the circular dichroism results, peptides from the 8–20 region (summary) (hIAPP 1–37 [1]): have inhibitory activity | description of activity on IAPP conformation (CD), peptides from the 8–20 region (hIAPP 1–37 [1]): limited inhibitory activity
Molecule: NFLVHS [FRA-017]
effect on IAPP fibril morphology / density / aggregation (EM) (hIAPP 1–37 [2]): only limited effects on the density and morphology of the fibrils

effect on IAPP fibril morphology / density / aggregation (EM) (hIAPP 1–37 [2]): significantly accelerated aggregation
Molecule: QRLANF [FRA-014]

effect on IAPP conformation (CD) (hIAPP 1–37 [1]): possibility of a random coil | effect on IAPP fibril morphology / density / aggregation (EM) (hIAPP 1–37 [2]): significantly accelerated aggregation
Molecule: TQRLAN [FRA-013]
effect on IAPP conformation (CD), peptides from the 8–20 region (hIAPP 1–37 [1]): enhanced formation of the beta-sheet conformation
